The values that follow come from paper PMC4854733 (The Journal of Experimental Medicine, 2016).

Data set [1] concerns the molecule itself. Kind of data set: negative-stain electron microscopy.
Data set [2] deals with the molecule itself. Description: fluorescence polarisation.
Data set [3] concerns the molecule itself. Kind of data set: SEC. A general note: In gel filtration, larger molecules generally elute earlier.

B1: ASC^CARD-SUMO (domain or fragment)
chain: AAKPGLHFIDQHRAALIARVTNVEWLLDALYGKVLTDEQYQAVRAEPTNPSKMRKLFSFTPAWNWTCKDLLLQALRESQSYLVEDLERS
In the case of B1, the binding result in data set [1] is “binds”.

B2: fluorescently labeled ASC^CARD-SUMO (domain or fragment)
chain: B1 chain
modifications: fluorophore joined by sortase at the C-terminal sortase motif
As for B2, in data set [2], the binding result is on record as “binds”.

B3: GFP-ASC^CARD (domain or fragment)
chain: B1 chain
Turning to B3, in data set [3], the binding result is reported as “binds”.
